From paper doi:10.1101/2025.01.27.635100 (bioRxiv, 2025)
Values joined by “and” are separate entries in the source; they are usually repeats but may differ in a detail not shown here. Identical values can stand only once. Blank lines part the entries; values can stand above or below the binder they belong to.

B3: P2 (PIH1D2), His tag cleaved, co-purified with S1’ (natural protein)
chain: METSSKGLLTQVTQFWNLLDDLAQSDPEGYEKFIQQQLKEGKQLCAAPEPQLCLQTRILKPKEKILFINLCQWTRIPAPQSTTHPVPLTVGKPEDTTEISDAYTVIDVAYNPDVLHAAEKDQVKKNQLIQMAMKCIEEKFQFTLSHSYHITKFRIKGSIQRMKQNLMGIQTDSIDLREKMRRELTLGQIRSSTMSNPDHFPQLLLPKDQVSGKAVCLIEEISSTEIQVEMKMPAYELKIVHDHSEKPLKIELKVELPGINSVSLCDLSVSEDDLLIEVSEKYRLHLNLPKLIDTEMTTAKFIKEKSTLIITMPLV

Legend:
[1] = target: R1^D302N R2^D299N complex, double active site mutant (no hydrolysis, ATP loaded) (human, UniProt Q9Y265;Q9Y230, D302N | D299N); assay: SPR
[2] = target: T1, R1R2 hetero-hexamer (pETDuet:His-R1R2-FH8), preparation for cryo-EM, native MS, mass photometry and XL-MS (human, UniProt Q9Y265;Q9Y230); assay: native MS
[3] = target: T1, R1R2 hetero-hexamer …; assay: mass photometry
[4] = target: RUVBL1 (R1) as a chain of the reconstituted R2S’P sample (human, UniProt Q9Y265 1-456); assay: cross-linking
[5] = target: RUVBL2 (R2) as a chain of the reconstituted R2S’P sample (human, UniProt Q9Y230 1-463); assay: cross-linking
[6] = target: B3; assay: cross-linking
[7] = target: T2, S1’’ (S1_(622-762)), extended version of S1_TPR3 (human, UniProt Q07617 622-762); assay: NMR
T2 sequence: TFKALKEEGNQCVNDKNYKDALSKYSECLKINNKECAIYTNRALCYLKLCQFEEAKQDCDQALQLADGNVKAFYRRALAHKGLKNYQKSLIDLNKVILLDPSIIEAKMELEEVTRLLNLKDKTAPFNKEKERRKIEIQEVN

[8] = target: R1R2 complex (6xHis-R1, 3xFLAG-R2), unlabeled, NMR interaction experiments (human, UniProt Q9Y265;Q9Y230); assay: NMR titration
Sequence of R1R2 complex (6xHis-R1, 3xFLAG-R2), unlabeled, NMR interaction experiments (Q9Y265 whole entry, chain 1 of 2): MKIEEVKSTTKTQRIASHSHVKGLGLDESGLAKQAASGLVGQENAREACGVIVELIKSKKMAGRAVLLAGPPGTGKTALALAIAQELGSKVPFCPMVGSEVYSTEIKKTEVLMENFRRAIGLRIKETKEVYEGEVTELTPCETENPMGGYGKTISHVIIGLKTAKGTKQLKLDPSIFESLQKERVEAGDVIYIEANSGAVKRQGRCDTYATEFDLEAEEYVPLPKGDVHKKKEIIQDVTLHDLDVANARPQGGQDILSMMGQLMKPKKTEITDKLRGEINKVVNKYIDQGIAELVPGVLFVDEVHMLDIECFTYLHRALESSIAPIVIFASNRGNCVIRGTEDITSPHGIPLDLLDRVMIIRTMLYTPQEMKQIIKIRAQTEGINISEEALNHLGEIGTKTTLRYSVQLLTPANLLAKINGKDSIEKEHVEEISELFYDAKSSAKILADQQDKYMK
Sequence of R1R2 complex (6xHis-R1, 3xFLAG-R2), unlabeled, NMR interaction experiments (Q9Y230 whole entry, chain 2 of 2): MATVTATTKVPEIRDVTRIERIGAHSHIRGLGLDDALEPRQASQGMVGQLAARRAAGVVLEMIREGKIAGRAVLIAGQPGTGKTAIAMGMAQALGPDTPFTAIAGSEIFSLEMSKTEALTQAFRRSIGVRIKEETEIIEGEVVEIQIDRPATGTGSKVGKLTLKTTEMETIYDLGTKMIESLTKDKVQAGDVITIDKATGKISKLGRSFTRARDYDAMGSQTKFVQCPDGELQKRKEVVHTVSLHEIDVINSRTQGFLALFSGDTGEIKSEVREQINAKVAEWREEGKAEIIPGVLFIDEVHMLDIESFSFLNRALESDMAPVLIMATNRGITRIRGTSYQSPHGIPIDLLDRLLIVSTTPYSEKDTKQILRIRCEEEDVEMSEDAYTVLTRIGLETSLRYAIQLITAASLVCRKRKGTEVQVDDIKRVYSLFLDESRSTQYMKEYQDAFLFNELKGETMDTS

T1 sequence (Q9Y265 whole entry, chain 1 of 2): as the sequence (Q9Y265 whole entry, chain 1 of 2) above
T1 sequence (Q9Y230 whole entry, chain 2 of 2): as the sequence (Q9Y230 whole entry, chain 2 of 2) above
Sequence of R1^D302N R2^D299N complex, double active site mutant (no hydrolysis, ATP loaded) (Q9Y265 whole entry D302N, chain 1 of 2): as the sequence (Q9Y265 whole entry, chain 1 of 2) above, with D302N counted along it
Sequence of R1^D302N R2^D299N complex, double active site mutant (no hydrolysis, ATP loaded) (Q9Y230 whole entry D299N, chain 2 of 2): as the sequence (Q9Y230 whole entry, chain 2 of 2) above, with D299N counted along it
Sequence of RUVBL2 (R2) as a chain of the reconstituted R2S’P sample (Q9Y230 whole entry): as the sequence (Q9Y230 whole entry, chain 2 of 2) above
Sequence of RUVBL1 (R1) as a chain of the reconstituted R2S’P sample (Q9Y265 whole entry): as the sequence (Q9Y265 whole entry, chain 1 of 2) above

B1: S1’P2 heterodimer, SPR preparation (complex)
chain 1: TFKALKEEGNQCVNDKNYKDALSKYSECLKINNKECAIYTNRALCYLKLCQFEEAKQDCDQALQLADGNVKAFYRRALAHKGLKNYQKSLIDLNKVILLDPSIIEAKMELEEVTRLLNLKDKTAPFNKEKERRKIEIQEVNEGKEEPGRPAGEVSMGCLASEKGGKSSRSPEDPEKLPIAKPNNAYEFGQIINALSTRKDKEACAHLLAITAPKDLPMFLSNKLEGDTFLLLIQSLKNNLIEKDPSLVYQHLLYLSKAERFKMMLTLISKGQKELIEQLFEDLSDTPNNHFTLEDIQALKRQYEL
chain 2: METSSKGLLTQVTQFWNLLDDLAQSDPEGYEKFIQQQLKEGKQLCAAPEPQLCLQTRILKPKEKILFINLCQWTRIPAPQSTTHPVPLTVGKPEDTTEISDAYTVIDVAYNPDVLHAAEKDQVKKNQLIQMAMKCIEEKFQFTLSHSYHITKFRIKGSIQRMKQNLMGIQTDSIDLREKMRRELTLGQIRSSTMSNPDHFPQLLLPKDQVSGKAVCLIEEISSTEIQVEMKMPAYELKIVHDHSEKPLKIELKVELPGINSVSLCDLSVSEDDLLIEVSEKYRLHLNLPKLIDTEMTTAKFIKEKSTLIITMPLV
binding result [1]: binds

Binder: B3
binding result [4]: binds
binding result [5]: binds

B5: S1’P2_(231-315) heterodimer, SPR preparation (complex)
chain 1: TFKALKEEGNQCVNDKNYKDALSKYSECLKINNKECAIYTNRALCYLKLCQFEEAKQDCDQALQLADGNVKAFYRRALAHKGLKNYQKSLIDLNKVILLDPSIIEAKMELEEVTRLLNLKDKTAPFNKEKERRKIEIQEVNEGKEEPGRPAGEVSMGCLASEKGGKSSRSPEDPEKLPIAKPNNAYEFGQIINALSTRKDKEACAHLLAITAPKDLPMFLSNKLEGDTFLLLIQSLKNNLIEKDPSLVYQHLLYLSKAERFKMMLTLISKGQKELIEQLFEDLSDTPNNHFTLEDIQALKRQYEL
chain 2: KMPAYELKIVHDHSEKPLKIELKVELPGINSVSLCDLSVSEDDLLIEVSEKYRLHLNLPKLIDTEMTTAKFIKEKSTLIITMPLV
binding result [1]: binds

B7: S1_C (SPAG1 796-926), isotope-labelled NMR sample (domain or fragment)
chain: EKLPIAKPNNAYEFGQIINALSTRKDKEACAHLLAITAPKDLPMFLSNKLEGDTFLLLIQSLKNNLIEKDPSLVYQHLLYLSKAERFKMMLTLISKGQKELIEQLFEDLSDTPNNHFTLEDIQALKRQYEL
binding result [8]: binds

More lines, main results first:

stoichiometry N [2]: 1 S’P2 per R1R2 hexamer and 2 S’P2 per R1R2 hexamer
B2: S1’P2 heterodimer, preparation for cryo-EM, native MS, mass photometry and XL-MS (complex)
chain 1: TFKALKEEGNQCVNDKNYKDALSKYSECLKINNKECAIYTNRALCYLKLCQFEEAKQDCDQALQLADGNVKAFYRRALAHKGLKNYQKSLIDLNKVILLDPSIIEAKMELEEVTRLLNLKDKTAPFNKEKERRKIEIQEVNEGKEEPGRPAGEVSMGCLASEKGGKSSRSPEDPEKLPIAKPNNAYEFGQIINALSTRKDKEACAHLLAITAPKDLPMFLSNKLEGDTFLLLIQSLKNNLIEKDPSLVYQHLLYLSKAERFKMMLTLISKGQKELIEQLFEDLSDTPNNHFTLEDIQALKRQYEL
chain 2: METSSKGLLTQVTQFWNLLDDLAQSDPEGYEKFIQQQLKEGKQLCAAPEPQLCLQTRILKPKEKILFINLCQWTRIPAPQSTTHPVPLTVGKPEDTTEISDAYTVIDVAYNPDVLHAAEKDQVKKNQLIQMAMKCIEEKFQFTLSHSYHITKFRIKGSIQRMKQNLMGIQTDSIDLREKMRRELTLGQIRSSTMSNPDHFPQLLLPKDQVSGKAVCLIEEISSTEIQVEMKMPAYELKIVHDHSEKPLKIELKVELPGINSVSLCDLSVSEDDLLIEVSEKYRLHLNLPKLIDTEMTTAKFIKEKSTLIITMPLV
stoichiometry N [3]: 1 S1’P2 per R1R2 hexamer and 2 S1’P2 per R1R2 hexamer and 1 S1’P2 per R1R2 dodecamer and 2 S1’P2 per R1R2 dodecamer

binding result [6]: binds
binding result [5]: binds
B4: S1’ (SPAG1 622-926), untagged, co-expressed with His-P2 (domain or fragment)
chain: TFKALKEEGNQCVNDKNYKDALSKYSECLKINNKECAIYTNRALCYLKLCQFEEAKQDCDQALQLADGNVKAFYRRALAHKGLKNYQKSLIDLNKVILLDPSIIEAKMELEEVTRLLNLKDKTAPFNKEKERRKIEIQEVNEGKEEPGRPAGEVSMGCLASEKGGKSSRSPEDPEKLPIAKPNNAYEFGQIINALSTRKDKEACAHLLAITAPKDLPMFLSNKLEGDTFLLLIQSLKNNLIEKDPSLVYQHLLYLSKAERFKMMLTLISKGQKELIEQLFEDLSDTPNNHFTLEDIQALKRQYEL

binding result [7]: binds
B6: P2_CS domain (P2_(231-315)) (domain or fragment)
chain: KMPAYELKIVHDHSEKPLKIELKVELPGINSVSLCDLSVSEDDLLIEVSEKYRLHLNLPKLIDTEMTTAKFIKEKSTLIITMPLV
